Data from the Human Domainome abundance scans (Beltran et al. 2025).
± gives the uncertainty stated by the source.

B1: Ankyrin-2, residues 3571 to 3650; numbered along this chain, Q01484 (parent)
chain: ERLAYIADHLGFSWTELARELDFTEEQIHQIRIENPNSLQDQSHALLKYWLERDGKHATDTNLVECLTKINRMDIVHLME

Variants of: B1
Assay: abundance fitness (aPCA) (normalised: wild type 0, dead -1); higher = more abundant; growth selection in yeast, the domain comes from the species named
Settings: Homo sapiens

Abundance fitness of substitutions, site by site:
L3: P -0.215 ± 0.064; E -0.289 ± 0.23; G -0.181 ± 0.11; A -0.164 ± 0.065; V 0.005 ± 0.089; C -0.086 ± 0.22; M 0.028 ± 0.095; S 0.043 ± 0.069; F 0.143 ± 0.075; W -0.117 ± 0.05; Q -0.031 ± 0.076; I 0.05 ± 0.24; R -0.077 ± 0.051; Y -0.155 ± 0.2; N -0.074 ± 0.26; T -0.019 ± 0.075; K -0.179 ± 0.11; H -0.038 ± 0.13
W14: G -0.978 ± 0.13; Q -0.999 ± 0.43; P -0.958 ± 0.19; C -0.63 ± 0.13; M -0.394 ± 0.18; N -0.348 ± 0.23; E -1.13 ± 0.25; A -0.572 ± 0.089; L -0.268 ± 0.077; K -1 ± 0.41; H -0.842 ± 0.43; R -0.994 ± 0.16; F -0.199 ± 0.17
S13: M -0.129 ± 0.18; R -0.077 ± 0.084; F -0.036 ± 0.1; K -0.224 ± 0.14; Q 0.059 ± 0.17; L -0.306 ± 0.11; V -0.214 ± 0.099; G -0.035 ± 0.074; W -0.17 ± 0.094; P -0.291 ± 0.11; Y -0.228 ± 0.2; A -0.097 ± 0.081; C -0.25 ± 0.19
I6: N -0.6 ± 0.24; S -0.642 ± 0.23; K -0.807 ± 0.45; V -0.126 ± 0.46; R -0.717 ± 0.26; P -0.412 ± 0.16; W -0.485 ± 0.22
A4: Y -0.075 ± 0.1; T 0.109 ± 0.048; N -0.024 ± 0.11; G 0.052 ± 0.035; M 0.004 ± 0.078; K -0.029 ± 0.08; H 0.016 ± 0.067; R -0.007 ± 0.043; P -0.071 ± 0.029; W -0.11 ± 0.061; L -0.058 ± 0.04; E -0.017 ± 0.054; F 0.129 ± 0.068; D 0.039 ± 0.084
A7: G 0.12 ± 0.28; L -0.008 ± 0.11; S 0.052 ± 0.33; K -0.041 ± 0.25; E -0.265 ± 0.21; T 0.029 ± 0.15; P -0.36 ± 0.18; W -0.053 ± 0.24; M -0.045 ± 0.25; Q -0.089 ± 0.35; R 0.087 ± 0.48
Y5: N 0.386 ± 0.43; A 0.066 ± 0.14; L 0.096 ± 0.29; V -0.084 ± 0.19; M -0.559 ± 0.43; W -0.143 ± 0.26; P -0.019 ± 0.17; G -0.231 ± 0.45; R -0.505 ± 0.32; C 0.137 ± 0.17; H 0.013 ± 0.28
L10: P -0.819 ± 0.11; Y -0.464 ± 0.14; C -0.184 ± 0.11; V -0.014 ± 0.08; S -0.668 ± 0.07; M -0.205 ± 0.11; R -1.09 ± 0.16; H -0.948 ± 0.37; W -0.498 ± 0.13; D -0.509 ± 0.2; K -0.911 ± 0.37; Q -0.791 ± 0.28; A -0.64 ± 0.099; G -0.704 ± 0.051
H9: P -0.268 ± 0.17; T -0.33 ± 0.24; V -0.043 ± 0.38; G -0.025 ± 0.2; D 0.021 ± 0.088; C 0.006 ± 0.4; K -0.232 ± 0.34; R -0.032 ± 0.22; L -0.02 ± 0.2; Y -0.409 ± 0.4; A -0.113 ± 0.24
D8: T 0.088 ± 0.21; W -0.342 ± 0.39; P 0.011 ± 0.12; R 0.031 ± 0.11; A 0.034 ± 0.18; S 0.051 ± 0.17; V -0.232 ± 0.11; K -0.006 ± 0.17; G -0.116 ± 0.12; I -0.237 ± 0.41; L 0.052 ± 0.09; E -0.075 ± 0.46; Q 0.234 ± 0.26
G11: Q -0.006 ± 0.079; M -0.223 ± 0.14; L -0.117 ± 0.058; F -0.039 ± 0.12; K -0.054 ± 0.13; N 0.336 ± 0.39; T -0.141 ± 0.072; D -0.052 ± 0.12; C -0.106 ± 0.092; Y -0.123 ± 0.18; R -0.074 ± 0.063; S 0.015 ± 0.054; P -0.536 ± 0.076; W -0.277 ± 0.099; I -0.271 ± 0.28; H -0.111 ± 0.15; A -0.058 ± 0.064
F12: C -0.04 ± 0.13; W 0.005 ± 0.092; V -0.045 ± 0.076; I 0.019 ± 0.17; M 0.028 ± 0.16; G 0.005 ± 0.068; R -0.041 ± 0.063; E -0.191 ± 0.15; K -0.143 ± 0.14; P -0.168 ± 0.13; Q -0.132 ± 0.25; Y -0.195 ± 0.25; L -0.068 ± 0.072; T -0.031 ± 0.08; D -0.312 ± 0.24; H -0.128 ± 0.2; S 0.063 ± 0.096; A 0.038 ± 0.079; N -0.158 ± 0.2
R2: D 0.107 ± 0.35; V 0.024 ± 0.23; P -0.454 ± 0.39; G -0.208 ± 0.34; W 0.056 ± 0.24; S 0.026 ± 0.17
